# Tested on: type 2 diabetic patients
# Experiment: Major cardiovascular events adjudicated by CAC (Example 1)
# Set-up: species or system human
# Conditions: in vivo
# From the text: One patient in the combination group and one patient in the insulin glargine group had respectively two events (hospitalization for unstable angina and percutaneous coronary intervention (PCI]) and one event (PCI) adjudicated as major cardiovascular events by cardiovascular events adjudication committee (CAC).
substance,measurement,value
Gly(A21)-Arg(B31)-Arg(B32)-human insulin [Insulin Glargine],Events adjudicated as major cardiovascular events by CAC,one
same,Patients with events adjudicated as major cardiovascular events by CAC,one

# Source: patent publication US11026999B2, “Insulin glargine/lixisenatide fixed ratio formulation” (SANOFI-AVENTIS DEUTSCHLAND GMBH, priority 2013, dated 2021)
